T1: human TL1A extracellular domain with N-terminal HIS and FLAG tag (human, UniProt O95150 72-251)
T1 construct: whole entry named. ~70 kDa fraction purified by gel filtration
T1 sequence: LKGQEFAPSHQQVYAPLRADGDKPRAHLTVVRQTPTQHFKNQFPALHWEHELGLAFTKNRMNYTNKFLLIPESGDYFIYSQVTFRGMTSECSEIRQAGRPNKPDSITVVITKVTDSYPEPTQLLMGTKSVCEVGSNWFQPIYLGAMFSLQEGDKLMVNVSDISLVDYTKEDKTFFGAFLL

T2: human TL1A extracellular domain with N-terminal HIS and FLAG tag (human, UniProt O95150 72-251)
T2 sequence: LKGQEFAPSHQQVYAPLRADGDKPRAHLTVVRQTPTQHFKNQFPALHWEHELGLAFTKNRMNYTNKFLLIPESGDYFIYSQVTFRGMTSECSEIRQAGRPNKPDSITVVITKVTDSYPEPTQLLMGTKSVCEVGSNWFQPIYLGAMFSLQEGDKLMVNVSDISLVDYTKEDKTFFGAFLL


Legend:
[1] = biological target: T1, human TL1A extracellular domain with …; assay: SPR run 3; supernatant on Protein A; TL1A 10 ug/mL; timepoint 590
Excerpt: (§1) 1.5. Antibody expression and antigen binding as determined by SPR. Using a CM5 sensor chip (GE Healthcare) Protein A (Pierce) was coupled to the chip surface using an amine coupling kit (GE Healthcare). Protein A was coupled on flow cell 1 and 2 (or alternatively 3 and 4) using a BIACORE® T200. […] The amount of supernatant or purified protein (as well as the concentration) injected during the capture stage varied between runs and is specified in the header of the Tables 3-11. At the end of injection of the supernatant or purified antibody the change in response units was measured. This value was reported as Capture Level in Tables 3-11. […] The response units were measured prior to the end of the dissociation phase. […] The sensorgrams were double referenced (flow cell 2 is subtracted from flow cell 1 and a buffer blank). As there were a large number of antibody variants to screen, these were screened across different runs (Tables 3-11). […] A summary of the conditions used in each run is below:
(§2) 2.1. […] In some experiment the antibodies were purified using Protein A chromatography (See 1.4) and purified antibodies were used in BIACORE® (GE Healthcare) experiments.

[2] = biological target: T1, human TL1A extracellular domain with …; assay: SPR run 3; supernatant on Protein A; TL1A 10 ug/mL; timepoint 59
Excerpt: as §1, §2

[3] = biological target: T2, human TL1A extracellular domain with …; assay: cell-based or functional assay
[4] = biological target: T2, human TL1A extracellular domain with …; assay: SPR Run 7, antibody on Protein A, TL1A 5 ug/mL, timepoint 44
Procedure, shortened: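 The capture level was the response change at the end of loading, which varied by run. Antigen response was read before dissociation ended, double-referenced against a reference flow cell and a buffer blank.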

[5] = biological target: T2, human TL1A extracellular domain with …; assay: SPR Run 7, antibody on Protein A, TL1A 5 ug/mL, timepoint 220
Procedure, shortened: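 Double-referenced sensorgrams (reference flow cell and buffer blank subtracted) provided the late-dissociation response for antibodies held by chip-bound Protein A. These antibodies came either as expression supernatant or as Protein A-purified material. The capture amount differed per run and was measured as the RU increase after loading.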

TL1A Binding Level (Late) [1] [RU]	TL1A Binding Level (Early) [2] [RU]	Antibody IC50, TL1A induced caspase potency assay in TF-1 cells [3] [ng/mL]	Fold improvement over 320-179, TL1A induced caspase potency assay in TF-1 cells [3] [fold]	TL1A Binding Level (Early) [4] [RU]	TL1A Binding Level (Late) [5] [RU]	Binder
10	30	–	–	–	–	320-256 (antibody, human IgG1, name in Kabat numbering, V domains shown, human IgG1, lambda) VH: QVQLVQSGAEVKKPGASVKVSCKASGYTFTSYDINWVRQAPGQGLEWMGWLNPNSGNTGYAQKFQGRVTMTADRSTSTAYMELSSLRSEDTAVYYCAREVPETAAFEYWGQGTLVTVSS VL: QSVLTQPPSVSGAPGQRVTISCTSSSSDILAGLGVHWYQQLPGTAPKLLIEGYYNRPSGVPDRFSGSKSGTSASLTITGLLPEDEGDYYCQSYDGTLSALFGGGTKLTVLG
–	–	10	2	–	–	320-278 (antibody, human IgG1, V domains shown) VH: QVQLVQSGAEVKKPGASVKVSCKASGYTFTSYDINWVRQAPGQGLEWMGWLNPNSGNTGYAQKFQGRVTMTADRSTSTAYMELSSLRSEDTAVYYCAREVPETAAFEYWGQGTLVTVSS VL: QSVLTQPPSVSGAPGQRVTISCTSSSSDIGAGQGVHWYQQLPGTAPKLLIEGYYNRPSGVPDRFSGSKSGTSASLTITGLLPEDEGDYYCQSYDGTLSALFGGGTKLTVLG
–	–	3	3	–	–	320-277 (antibody, human IgG1, V domains shown) VH: QVQLVQSGAEVKKPGASVKVSCKASGYTFTSYDINWVRQAPGQGLEWMGWLNPNSGNTGYAQKFQGRVTMTADRSTSTAYMELSSLRSEDTAVYYCAREVPETAAFEYWGQGTLVTVSS VL: QSVLTQPPSVSGAPGQRVTISCTSSSSDIGAGSGVHWYQQLPGTAPKLLIEGYYNRPSGVPDRFSGSKSGTSASLTITGLLPEDEGDYYCQSYDGTLSALFGGGTKLTVLG
–	–	10	4	–	–	320-267 (antibody, human IgG1, V domains shown) VH: QVQLVQSGAEVKKPGASVKVSCKASGYTFTSYDINWVRQAPGQGLEWMGWLNPNSGNTGYAQKFQGRVTMTADRSTSTAYMELSSLRSEDTAVYYCAREVPETAAFEYWGQGTLVTVSS VL: QSVLTQPPSVSGAPGQRVTISCTSSSSDIGAALGVHWYQQLPGTAPKLLIEGYYNRPSGVPDRFSGSKSGTSASLTITGLLPEDEGDYYCQSYDGTLSALFGGGTKLTVLG
192	218	–	–	–	–	320-266 (antibody, human IgG1, name in Kabat numbering, V domains shown, human IgG1, lambda) VH: QVQLVQSGAEVKKPGASVKVSCKASGYTFTSYDINWVRQAPGQGLEWMGWLNPNSGNTGYAQKFQGRVTMTADRSTSTAYMELSSLRSEDTAVYYCAREVPETAAFEYWGQGTLVTVSS VL: QSVLTQPPSVSGAPGQRVTISCTSSSSDIGYGLGVHWYQQLPGTAPKLLIEGYYNRPSGVPDRFSGSKSGTSASLTITGLLPEDEGDYYCQSYDGTLSALFGGGTKLTVLG
190	209	–	–	–	–	320-262 (antibody, human IgG1, name in Kabat numbering, V domains shown, human IgG1, lambda) VH: QVQLVQSGAEVKKPGASVKVSCKASGYTFTSYDINWVRQAPGQGLEWMGWLNPNSGNTGYAQKFQGRVTMTADRSTSTAYMELSSLRSEDTAVYYCAREVPETAAFEYWGQGTLVTVSS VL: QSVLTQPPSVSGAPGQRVTISCTSSSSDIGHGLGVHWYQQLPGTAPKLLIEGYYNRPSGVPDRFSGSKSGTSASLTITGLLPEDEGDYYCQSYDGTLSALFGGGTKLTVLG
69	168	–	–	–	–	320-265 (antibody, human IgG1, name in Kabat numbering, V domains shown, human IgG1, lambda) VH: QVQLVQSGAEVKKPGASVKVSCKASGYTFTSYDINWVRQAPGQGLEWMGWLNPNSGNTGYAQKFQGRVTMTADRSTSTAYMELSSLRSEDTAVYYCAREVPETAAFEYWGQGTLVTVSS VL: QSVLTQPPSVSGAPGQRVTISCTSSSSDIGWGLGVHWYQQLPGTAPKLLIEGYYNRPSGVPDRFSGSKSGTSASLTITGLLPEDEGDYYCQSYDGTLSALFGGGTKLTVLG
7	28	–	–	–	–	320-268 (antibody, human IgG1, name in Kabat numbering, V domains shown, human IgG1, lambda) VH: QVQLVQSGAEVKKPGASVKVSCKASGYTFTSYDINWVRQAPGQGLEWMGWLNPNSGNTGYAQKFQGRVTMTADRSTSTAYMELSSLRSEDTAVYYCAREVPETAAFEYWGQGTLVTVSS VL: QSVLTQPPSVSGAPGQRVTISCTSSSSDIGASLGVHWYQQLPGTAPKLLIEGYYNRPSGVPDRFSGSKSGTSASLTITGLLPEDEGDYYCQSYDGTLSALFGGGTKLTVLG
93	126	–	–	–	–	320-269 (antibody, human IgG1, name in Kabat numbering, V domains shown, human IgG1, lambda) VH: QVQLVQSGAEVKKPGASVKVSCKASGYTFTSYDINWVRQAPGQGLEWMGWLNPNSGNTGYAQKFQGRVTMTADRSTSTAYMELSSLRSEDTAVYYCAREVPETAAFEYWGQGTLVTVSS VL: QSVLTQPPSVSGAPGQRVTISCTSSSSDIGAQLGVHWYQQLPGTAPKLLIEGYYNRPSGVPDRFSGSKSGTSASLTITGLLPEDEGDYYCQSYDGTLSALFGGGTKLTVLG
184	199	–	–	–	–	320-264 (antibody, human IgG1, name in Kabat numbering, V domains shown, human IgG1, lambda) VH: QVQLVQSGAEVKKPGASVKVSCKASGYTFTSYDINWVRQAPGQGLEWMGWLNPNSGNTGYAQKFQGRVTMTADRSTSTAYMELSSLRSEDTAVYYCAREVPETAAFEYWGQGTLVTVSS VL: QSVLTQPPSVSGAPGQRVTISCTSSSSDIGLGLGVHWYQQLPGTAPKLLIEGYYNRPSGVPDRFSGSKSGTSASLTITGLLPEDEGDYYCQSYDGTLSALFGGGTKLTVLG
179	194	–	–	–	–	320-259 (antibody, human IgG1, name in Kabat numbering, V domains shown, human IgG1, lambda) VH: QVQLVQSGAEVKKPGASVKVSCKASGYTFTSYDINWVRQAPGQGLEWMGWLNPNSGNTGYAQKFQGRVTMTADRSTSTAYMELSSLRSEDTAVYYCAREVPETAAFEYWGQGTLVTVSS VL: QSVLTQPPSVSGAPGQRVTISCTSSSSDIGSGLGVHWYQQLPGTAPKLLIEGYYNRPSGVPDRFSGSKSGTSASLTITGLLPEDEGDYYCQSYDGTLSALFGGGTKLTVLG
18	83	–	–	–	–	320-257 (antibody, human IgG1, name in Kabat numbering, V domains shown, human IgG1, lambda) VH: QVQLVQSGAEVKKPGASVKVSCKASGYTFTSYDINWVRQAPGQGLEWMGWLNPNSGNTGYAQKFQGRVTMTADRSTSTAYMELSSLRSEDTAVYYCAREVPETAAFEYWGQGTLVTVSS VL: QSVLTQPPSVSGAPGQRVTISCTSSSSDIWAGLGVHWYQQLPGTAPKLLIEGYYNRPSGVPDRFSGSKSGTSASLTITGLLPEDEGDYYCQSYDGTLSALFGGGTKLTVLG
29	86	–	–	–	–	320-261 (antibody, human IgG1, name in Kabat numbering, V domains shown, human IgG1, lambda) VH: QVQLVQSGAEVKKPGASVKVSCKASGYTFTSYDINWVRQAPGQGLEWMGWLNPNSGNTGYAQKFQGRVTMTADRSTSTAYMELSSLRSEDTAVYYCAREVPETAAFEYWGQGTLVTVSS VL: QSVLTQPPSVSGAPGQRVTISCTSSSSDIGDGLGVHWYQQLPGTAPKLLIEGYYNRPSGVPDRFSGSKSGTSASLTITGLLPEDEGDYYCQSYDGTLSALFGGGTKLTVLG
–	–	4	10	77	75	320-547 (antibody, human IgG1, name in Kabat numbering, V domains shown, full-length human IgG1, lambda) VH: QVQLVQSGAEVKKPGASVKVSCKASGYTFTSYDINWVRQAPGQGLEWMGWLNPNSGYTGYAQKFQGRVTMTADRSTSTAYMELSSLRSEDTAVYYCAREVPETAAFEYWGQGTLVTVSS VL: QSVLTQPPSVSGAPGQRVTISCTSSSSDIGAGLGVHWYQQLPGTAPKLLIEGYYNRPSGVPDRFSGSKSGTSASLTITGLLPEDEGDYYCQSYDGTLSALFGGGTKLTVLG
30	106	–	–	–	–	320-271 (antibody, human IgG1, name in Kabat numbering, V domains shown, human IgG1, lambda) VH: QVQLVQSGAEVKKPGASVKVSCKASGYTFTSYDINWVRQAPGQGLEWMGWLNPNSGNTGYAQKFQGRVTMTADRSTSTAYMELSSLRSEDTAVYYCAREVPETAAFEYWGQGTLVTVSS VL: QSVLTQPPSVSGAPGQRVTISCTSSSSDIGAHLGVHWYQQLPGTAPKLLIEGYYNRPSGVPDRFSGSKSGTSASLTITGLLPEDEGDYYCQSYDGTLSALFGGGTKLTVLG
165	182	–	–	–	–	320-260 (antibody, human IgG1, name in Kabat numbering, V domains shown, human IgG1, lambda) VH: QVQLVQSGAEVKKPGASVKVSCKASGYTFTSYDINWVRQAPGQGLEWMGWLNPNSGNTGYAQKFQGRVTMTADRSTSTAYMELSSLRSEDTAVYYCAREVPETAAFEYWGQGTLVTVSS VL: QSVLTQPPSVSGAPGQRVTISCTSSSSDIGQGLGVHWYQQLPGTAPKLLIEGYYNRPSGVPDRFSGSKSGTSASLTITGLLPEDEGDYYCQSYDGTLSALFGGGTKLTVLG

Source: patent US20170081400A1 (CEPHALON, published 2017)
